Results: article PMC8287961

Target: KAP1 (UniProt Q13263)
Assay: GFP-Trap IP from nuclear lysate, coomassie gel
Conditions: reference: GFP-HP1β wild type; sites S89,S91

HP1β (from UniProt P83917) GFP-HP1β S89/91A
binding against the reference: weaker
